Source: US11077130

Columns and labels:
[1] = molecular target: B.RHPA Env T278A R456W (HIV-1); experiment: cell-based or functional assay
B.RHPA Env N276A (HIV-1) = experiment: cell-based or functional assay
B.RHPA Env T278A (HIV-1) = experiment: cell-based or functional assay
B.RHPA Env N160K (HIV-1) = experiment: cell-based or functional assay
[2] = molecular target: HIV-1 Env (strain and construct not stated); experiment: SPR; antibody-Env mixture flowed over immobilized HJ16 (competitor: immobilized HJ16)
B.6240 gp120 (HIV-1) = experiment: not stated (binding of B.6420 gp120 to mAbs)

| quantity not named (value printed after the antibody's name) (B.6240 gp120 (HIV-1)) [nM] | Substance | fold increase in IC50 (neutralization, mutant vs wild type) [1] [fold] | fold increase in IC50 (neutralization, mutant vs wild type) (B.RHPA Env N276A (HIV-1)) [fold] | fold increase in IC50 (neutralization, mutant vs wild type) (B.RHPA Env T278A (HIV-1)) [fold] | fold increase in IC50 (neutralization, mutant vs wild type) (B.RHPA Env N160K (HIV-1)) [fold] | percent blocked [2] [%] |
| --- | --- | --- | --- | --- | --- | --- |
|  | HJ16 (antibody) | > 1000 | > 10 | > 10 | 0.5 | 96 |
| 32.1 | PG9 (antibody) |  |  |  |  |  |
